Results as given in patent US20030186281A1, “Modified tetracycline repressor protein compositions and methods of use” (priority 2001, published 2003).

B1: TetRrev28/26: revTetR(BD) L14T N18Y G21G I22F (protein)
chain: MSRLDKSKVINSATELLYEVGFEGLTTRKLAQKLGVEQPTLYWHVKNKRALLDALAVEILARHHDYSLPAAGESWQSFLRNNAMSFRRALLRYRDGAKVHLGTRPDEKQYDTVETQLRFMTENGFSLRDGLYAISAVSHFTLGAVLEQQEHTAALTDRPAAPDENLPPLLREALQIMDSDDGEQAFLHGLESLIRGFEVQLTALLQIV
modifications: Modified tetracycline repressor
notes: revTetR(BD) L14T N18Y G21G I22F
B2: TetRrev28/49: revTetR(BD) N18Y V20D I22T (protein)
chain: MSRLDKSKVINSALELLYDVGTEGLTTRKLAQKLGVEQPTLYWHVKNKRALLDALAVEILARHHDYSLPAAGESWQSFLRNNAMSFRRALLRYRDGAKVHLGTRPDEKQYDTVETQLRFMTENGFSLRDGLYAISAVSHFTLGAVLEQQEHTAALTDRPAAPDENLPPLLREALQIMDSDDGEQAFLHGLESLIRGFEVQLTALLQIV
modifications: Modified tetracycline repressor
notes: revTetR(BD) N18Y V20D I22T
B3: TetRrev29/17: revTetR(BD) L17S E23D (protein)
chain: MSRLDKSKVINSALELSNEVGIDGLTTRKLAQKLGVEQPTLYWHVKNKRALLDALAVEILARHHDYSLPAAGESWQSFLRNNAMSFRRALLRYRDGAKVHLGTRPDEKQYDTVETQLRFMTENGFSLRDGLYAISAVSHFTLGAVLEQQEHTAALTDRPAAPDENLPPLLREALQIMDSDDGEQAFLHGLESLIRGFEVQLTALLQIV
modifications: Modified tetracycline repressor
notes: revTetR(BD) L17S E23D
B4: TetRrev28/30: revTetR(BD) V20G G21A I22I E23G (protein)
chain: MSRLDKSKVINSALELLNEGAIGGLTTRKLAQKLGVEQPTLYWHVKNKRALLDALAVEILARHHDYSLPAAGESWQSFLRNNAMSFRRALLRYRDGAKVHLGTRPDEKQYDTVETQLRFMTENGFSLRDGLYAISAVSHFTLGAVLEQQEHTAALTDRPAAPDENLPPLLREALQIMDSDDGEQAFLHGLESLIRGFEVQLTALLQIV
modifications: Modified tetracycline repressor
notes: revTetR(BD) V20G G21A I22I E23G
B5: TetRrev28/48: revTetR(BD) N18Y V20D I22T W43S (protein)
chain: MSRLDKSKVINSALELLYEDGTEGLTTRKLAQKLGVEQPTLYSHVKNKRALLDALAVEILARHHDYSLPAAGESWQSFLRNNAMSFRRALLRYRDGAKVHLGTRPDEKQYDTVETQLRFMTENGFSLRDGLYAISAVSHFTLGAVLEQQEHTAALTDRPAAPDENLPPLLREALQIMDSDDGEQAFLHGLESLIRGFEVQLTALLQIV
modifications: Modified tetracycline repressor
notes: revTetR(BD) N18Y V20D I22T W43S
B6: TetRrev28/31: revTetR(BD) A13A V20G G21R I22N G24G (protein)
chain: MSRLDKSKVINSALELLNEGRNEGLTTRKLAQKLGVEQPTLYWHVKNKRALLDALAVEILARHHDYSLPAAGESWQSFLRNNAMSFRRALLRYRDGAKVHLGTRPDEKQYDTVETQLRFMTENGFSLRDGLYAISAVSHFTLGAVLEQQEHTAALTDRPAAPDENLPPLLREALQIMDSDDGEQAFLHGLESLIRGFEVQLTALLQIV
modifications: Modified tetracycline repressor
notes: revTetR(BD) A13A V20G G21R I22N G24G
B7: TetRrev28/41: revTetR(BD) L17L N18D V20R I22N (protein)
chain: MSRLDKSKVINSALELLDERGNEGLTTRKLAQKLGVEQPTLYWHVKNKRALLDALAVEILARHHDYSLPAAGESWQSFLRNNAMSFRRALLRYRDGAKVHLGTRPDEKQYDTVETQLRFMTENGFSLRDGLYAISAVSHFTLGAVLEQQEHTAALTDRPAAPDENLPPLLREALQIMDSDDGEQAFLHGLESLIRGFEVQLTALLQIV
modifications: Modified tetracycline repressor
notes: revTetR(BD) L17L N18D V20R I22N
B8: TetRrev28/40: revTetR(BD) L14S N18Y I22F L25L (protein)
chain: MSRLDKSKVINSASELLYEVGFEGLTTRKLAQKLGVEQPTLYWHVKNKRALLDALAVEILARHHDYSLPAAGESWQSFLRNNAMSFRRALLRYRDGAKVHLGTRPDEKQYDTVETQLRFMTENGFSLRDGLYAISAVSHFTLGAVLEQQEHTAALTDRPAAPDENLPPLLREALQIMDSDDGEQAFLHGLESLIRGFEVQLTALLQIV
modifications: Modified tetracycline repressor
notes: revTetR(BD) L14S N18Y I22F L25L
B9: TetRrev28/27: revTetR(BD) L17G I22M (protein)
chain: MSRLDKSKVINSALELGNEVGMEGLTTRKLAQKLGVEQPTLYWHVKNKRALLDALAVEILARHHDYSLPAAGESWQSFLRNNAMSFRRALLRYRDGAKVHLGTRPDEKQYDTVETQLRFMTENGFSLRDGLYAISAVSHFTLGAVLEQQEHTAALTDRPAAPDENLPPLLREALQIMDSDDGEQAFLHGLESLIRGFEVQLTALLQIV
modifications: Modified tetracycline repressor
notes: revTetR(BD) L17G I22M
B10: TetRrev28/46: revTetR(BD) A13A V20G G21R I22N G24G (protein)
chain: MSRLDKSKVINSALELLNEGRNEGLTTRKLAQKLGVEQPTLYWHVKNKRALLDALAVEILARHHDYSLPAAGESWQSFLRNNAMSFRRALLRYRDGAKVHLGTRPDEKQYDTVETQLRFMTENGFSLRDGLYAISAVSHFTLGAVLEQQEHTAALTDRPAAPDENLPPLLREALQIMDSDDGEQAFLHGLESLIRGFEVQLTALLQIV
modifications: Modified tetracycline repressor
notes: as for B6
B11: TetRrev29/9: revTetR(BD) L17V N18Y G21G I22T (protein)
chain: MSRLDKSKVINSALELVYEVGTEGLTTRKLAQKLGVEQPTLYWHVKNKRALLDALAVEILARHHDYSLPAAGESWQSFLRNNAMSFRRALLRYRDGAKVHLGTRPDEKQYDTVETQLRFMTENGFSLRDGLYAISAVSHFTLGAVLEQQEHTAALTDRPAAPDENLPPLLREALQIMDSDDGEQAFLHGLESLIRGFEVQLTALLQIV
modifications: Modified tetracycline repressor
notes: revTetR(BD) L17V N18Y G21G I22T
B12: TetRrev28/36: revTetR(BD) N18I E19G V20G E23V (protein)
chain: MSRLDKSKVINSALELLIGGGIVGLTTRKLAQKLGVEQPTLYWHVKNKRALLDALAVEILARHHDYSLPAAGESWQSFLRNNAMSFRRALLRYRDGAKVHLGTRPDEKQYDTVETQLRFMTENGFSLRDGLYAISAVSHFTLGAVLEQQEHTAALTDRPAAPDENLPPLLREALQIMDSDDGEQAFLHGLESLIRGFEVQLTALLQIV
modifications: Modified tetracycline repressor
notes: revTetR(BD) N18I E19G V20G E23V

System: tet operator sequence
Test: β-galactosidase activity of a tetracycline-regulated promoter in transformed E. coli with revTetR, in the presence and absence of anhydrotetracycline (atc)
Assay type: cell-based, Escherichia coli
Details: for β-Galactosidase Activity, Cultured Without ATC: RevTetR isolate cultured in the absence of anhydrotetracycline (ATC); for β-Galactosidase Activity, Cultured With ATC: RevTetR isolate cultured in the presence of anhydrotetracycline (ATC)
Outline: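 TetR(BD) chimera mutants (TetR(B) residues 1–50, TetR(D) 51–208) expressed in E. coli regulating a tet operator-controlled lacZ. β-Galactosidase measured in Miller units at 28 °C and 37 °C with and without anhydrotetracycline; reported as percent of maximal expression without Tet repressor.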

Molecule | β-Galactosidase Activity, Cultured Without ATC | β-Galactosidase Activity, Cultured With ATC
B1 | 89.3918 | 3.8006
B2 | 62.5137 | 8.2716
B3 | 44.6409 | 1.7738
B4 | 55.1783 | 3.7384
B5 | 99.3107 | 1.1587
B6 | 99.8749 | 1.1121
B7 | 15.4643 | 5.6333
B8 | 91 .691 | 3.4834
B9 | 95.0152 | 1.6907
B10 | 95.9627 | 1.1482
B11 | 74.4357 | 11.772
B12 | 65.5335 | 1.0579
